Assay results: patent publication US20250236663A1 (NEURACLE SCIENCE, published 2025)

Columns and labels:
FAM19A5 mutant M8 = target: T1, FAM19A5 mutant M8 (human); assay: ELISA on phage-displayed FAM19A5 mutants; y axis without label
T1 construct: FAM19A5 with region 8 replaced by the consensus of FAM19A1-4; The entry already carries the changes
T1 chain: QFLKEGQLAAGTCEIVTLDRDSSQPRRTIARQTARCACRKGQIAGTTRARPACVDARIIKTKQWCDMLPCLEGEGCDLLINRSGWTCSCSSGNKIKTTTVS

FAM19A5 mutant M6 = target: T2, FAM19A5 mutant M6 (human); assay: as above
T2 construct: FAM19A5 with region 6 replaced by the consensus of FAM19A1-4; The entry already carries the changes
T2 chain: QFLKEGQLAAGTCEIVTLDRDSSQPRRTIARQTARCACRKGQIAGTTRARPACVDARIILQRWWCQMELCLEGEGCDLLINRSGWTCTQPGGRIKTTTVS

FAM19A5 mutant M7 = target: T3, FAM19A5 mutant M7 (human); assay: as above
T3 construct: FAM19A5 with region 7 replaced by the consensus of FAM19A1-4; The entry already carries the changes
T3 chain: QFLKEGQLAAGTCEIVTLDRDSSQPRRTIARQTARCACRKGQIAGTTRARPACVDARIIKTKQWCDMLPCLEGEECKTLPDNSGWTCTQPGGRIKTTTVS

[1] = target: T4, FAM19A5 fragment 5 mutant peptide F5-7 (#7) (human); assay: ELISA on the coated F5 mutant peptide
T4 construct: The entry already carries the alanine substitution and Ser for Cys; also called mutant peptide #7
Protocol: (§1) Overlapping peptide fragments (F1-F6, see FIG. 9) of the human FAM19A5 protein were synthesized and conjugated to BSA. Binding of the different anti-FAM19A5 antibodies to the BSA-conjugated peptide fragments F1-F6 was determined by Western blot analysis or ELISA assay. For the Western blot analysis, BSA-conjugated FAM19A5 fragments F1-F6 were separated by SDS polyacrylamide gel electrophoresis and transferred to a nitrocellulose membrane by the standard procedure. The membrane was incubated with the anti-FAM19A5 antibody (e.g., 1-65, 2 μg/ml, 1-65-scFv-rabbit Fc-SSS), and the antigen-antibody complexes were detected with the appropriate secondary antibody conjugated with horse-radish peroxidase (anti-rabbit IgG (Fc specific)-HRP, 1:4000 dilution). For the ELISA assay, the following protocol was used. FAM19A5 fragment F1-F6 (diluted to 1 μg/mL in 50 mM carbonate buffer (Biosesang) or to 20 μg/mL for high concentration analysis) were used to coat the wells of 96-well immuno plates (Thermo Scientific) (100 μL/well) overnight at 4° C. and then subsequently washed twice in 1×PBS. The plates were then blocked with the blocking buffer (100 μL/well) for 1 hour at room temperature. During the 1-hour incubation, the relevant anti-FAM19A5 antibodies were diluted to 1 μg/mL (or 20 μg/mL for high concentration analysis) in the diluent buffer. Once the plates were washed (2× using 1×PBS), the diluted anti-FAM19A5 antibodies were added to the appropriate wells, and the plates were incubated at room temperature for 1 hour. The plates were subsequently washed for a total of five times using the washing buffer. Next, the ODP substrate (prepared by dissolving one ODP tablet (O-phenylenediamine Dihydrochloride, Thermo) into 9 mL of sterilized deionized water and 1 mL of 10× stable Peroxide Stable buffer (Theromo)) was added to each of the wells, and the color change reaction was allowed to occur for 10 minutes. This reaction was stopped by adding 100 μL of 2N H2SO4 (Daejung) to the wells. The absorption value of each of the wells was detected at 492 nm using a 96-well microplate reader (Molecular Device).
(§2) Next, to identify the specific amino acid residues within the epitope fragment F5 that the 1-65 and P2-C12 antibodies bind to, different amino acid residues of the F5 fragment were replaced with alanine as shown in Table 9 (below).

[2] = target: T5, FAM19A5 fragment 5 mutant peptide F5-2 (#2) (human); assay: ELISA on the coated F5 mutant peptide
T5 construct: The entry already carries the alanine substitution and Ser for Cys; also called mutant peptide #2
Protocol: as §1, §2

[3] = target: T6, FAM19A5 fragment 5 mutant peptide F5-4 (#4) (human); assay: ELISA on the coated F5 mutant peptide
T6 construct: The entry already carries the alanine substitution and Ser for Cys; also called mutant peptide #4
Protocol: as §1, §2

FAM19A2 = target: T7, FAM19A2 (UniProt Q8N3H0 31-131, limits assumed); assay: Western blot on extracts of HEK293T cells stably transfected with FAM19A family genes
T7 construct: Member of the group other FAM19A subfamily proteins; also called other FAM19A subfamily proteins; other proteins in the FAM19A subfamily
Protocol: (§3) HEK293T cells stably transfected with genes encoding the FAM19A family of proteins were lysed in buffer containing 50 mM Tris-HCL (pH 6.8), 2% SDS, 10% glycerol, 100 mM mercaptoethanol, and bromophenol blue. Whole-cell extracts were resolved on SDS-polyacrylamide (PAGE) gels and transferred to nitrocellulose blotting membranes in a Bio-Rad Trans-Blot electrophoresis apparatus (Hercules, CA, USA). The blots were blocked in Tris-buffered saline containing 0.3% Tween 20 and 5% skim milk, and incubated with anti-FAM19A5 antibody at room temperature for 3 h. They were then washed three times with TBS/0.3% Tween 20. Antibody binding was subsequently detected by incubation with secondary antibodies linked to horseradish peroxidase (Jackson ImmunoReserch Laboratories, West Grove, PA, USA). The blots were washed three times, and immunoreactive bands were visualized by exposure to X-ray film for 0.5 or 10 min, after application of GE healthcare ECL reagents (Buckinghamshire, UK). […] Cells were then blocked with 3% BSA and 0.1% Triton X-100 in PBS for 30 min at room temperature. Primary antibody (the anti-FAM19A5 antibody 1-65) was applied overnight at 4° C. After several washes with PBS, appropriate secondary antibodies were applied for 30 min. Subsequently, the cells were washed, mounted, and observed under a fluorescence or confocal microscope (LSM700; Zeiss, Goettingen, Germany). Nuclei were stained with Hoechst 33342.

FAM19A3 = target: T8, FAM19A3 (UniProt Q7Z5A8 31-133, limits assumed); assay: as above
T8 construct: Member of the group other FAM19A subfamily proteins; also called other FAM19A subfamily proteins; other proteins in the FAM19A subfamily
Protocol: as §3

FAM19A1 = FAM19A1 (UniProt Q7Z5A9 20-133); assay: as above
Protocol: as §3

FAM19A4 = target: T9, FAM19A4 (UniProt Q96LR4 36-140, limits assumed); assay: as above
T9 construct: Member of the group other FAM19A subfamily proteins; also called other FAM19A subfamily proteins; other proteins in the FAM19A subfamily
Protocol: as §3

[4] = target: T6, FAM19A5 fragment 5 mutant peptide F5-4 …; assay: ELISA on alanine-substituted F5 peptides (I16 to alanine)
Protocol: Overlapping peptide fragments (F1-F6, see FIG. 9) of the human FAM19A5 protein were synthesized and conjugated to BSA. Binding of the different anti-FAM19A5 antibodies to the BSA-conjugated peptide fragments F1-F6 was determined by Western blot analysis or ELISA assay. For the Western blot analysis, BSA-conjugated FAM19A5 fragments F1-F6 were separated by SDS polyacrylamide gel electrophoresis and transferred to a nitrocellulose membrane by the standard procedure. The membrane was incubated with the anti-FAM19A5 antibody (e.g., 1-65, 2 μg/ml, 1-65-scFv-rabbit Fc-SSS), and the antigen-antibody complexes were detected with the appropriate secondary antibody conjugated with horse-radish peroxidase (anti-rabbit IgG (Fc specific)-HRP, 1:4000 dilution). For the ELISA assay, the following protocol was used. FAM19A5 fragment F1-F6 (diluted to 1 μg/mL in 50 mM carbonate buffer (Biosesang) or to 20 μg/mL for high concentration analysis) were used to coat the wells of 96-well immuno plates (Thermo Scientific) (100 μL/well) overnight at 4° C. and then subsequently washed twice in 1×PBS. The plates were then blocked with the blocking buffer (100 μL/well) for 1 hour at room temperature. […] The absorption value of each of the wells was detected at 492 nm using a 96-well microplate reader (Molecular Device). […]

T5 sequence (peptide, as listed by the source mutant): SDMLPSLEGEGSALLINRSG
T6 sequence (peptide, as listed by the source mutant): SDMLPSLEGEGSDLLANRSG
T4 sequence (peptide, as listed by the source mutant): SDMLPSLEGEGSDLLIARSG
T9 sequence (Q96LR4 36-140 limits assumed): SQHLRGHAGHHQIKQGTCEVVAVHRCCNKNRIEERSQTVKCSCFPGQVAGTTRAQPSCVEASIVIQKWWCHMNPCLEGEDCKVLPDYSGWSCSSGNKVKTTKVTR
T8 sequence (Q7Z5A8 31-133 limits assumed): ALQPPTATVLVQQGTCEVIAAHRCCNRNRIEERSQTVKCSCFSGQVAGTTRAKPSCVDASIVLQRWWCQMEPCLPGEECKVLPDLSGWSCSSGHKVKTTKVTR
T7 sequence (Q8N3H0 31-131 limits assumed): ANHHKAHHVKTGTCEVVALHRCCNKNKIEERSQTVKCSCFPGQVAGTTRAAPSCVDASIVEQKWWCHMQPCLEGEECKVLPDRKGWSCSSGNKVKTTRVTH

binding result (FAM19A5 mutant M8): no binding | binding result (FAM19A5 mutant M6): no binding | binding result (FAM19A5 mutant M7): no binding | O.D (492nm) [1]: 1.64 | O.D (492nm) [2]: 0.155 | binding result [2]: no binding | O.D (492nm) [3]: 0.688 | binding result (FAM19A2): no binding | binding result (FAM19A3): no binding | binding result (FAM19A1): no binding | binding result (FAM19A4): no binding | binding result [4]: no binding
B1: chimeric anti-FAM19A5-IgG2/4 monoclonal antibody (1-65) (antibody, V domains shown)
VH: AVTLDESGGGLQTPGGALSLVCKASGFTFSSYQMGWVRQAPGKGLEWVGVINKSGSDTSYGSAVKGRATISRDNGQSTVRLQLNNLRAEDTGTYFCAKGSASYITAATIDAWGHGTEVIVSS
VL: ALTQPSSVSANPGETVKITCSGGGSSGYGYGWYQQKSPSSAPLTVIYWNDKRPSDIPSRFSGSKSGSTHTLTITGVQAEDEAVYFCGNDDYSSDSGYVGVFGAGTTLTVL
notes: Chicken-derived variable domains; also called anti-FAM19A5 antibody 1-65; Anti-FAM19A5 (1-65)
